Data reported in US20240336909A1 (HARPOON THERAPEUTICS, published 2024).

T1: human EpCAM protein (human, UniProt P16422 24-265)
T1 construct: biotinylated in the Octet assays; also called hu EpCAM; biotinylated human EpCAM protein
T1 sequence (looked up): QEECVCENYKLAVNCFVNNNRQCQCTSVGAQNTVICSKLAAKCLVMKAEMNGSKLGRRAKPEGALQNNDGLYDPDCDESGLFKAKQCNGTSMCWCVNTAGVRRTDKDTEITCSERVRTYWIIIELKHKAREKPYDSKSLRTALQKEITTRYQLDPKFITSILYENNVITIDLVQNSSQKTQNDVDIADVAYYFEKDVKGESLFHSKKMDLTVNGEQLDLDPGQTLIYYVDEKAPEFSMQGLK


What was measured:
[1] = biological target: T1, human EpCAM protein; test: colorimetric ELISA
Excerpt: (§1) Llamas were immunized with purified EpCAM protein expressed in Expi293 cells. A phage display library for expression of heavy variable antibody domains was constructed from circulating B cells. See van der Linden, de Geus, Stok, Bos,van Wassenaar, Verrips, and Frenken. 2000. J Immunol Methods 240:185-195. Phage clones were screened for binding to EpCAM by expressing anti-EpCAM proteins in E coli, preparing periplasmic extracts, and proteins were screened for human and cynomolgus EpCAM binding activity using a colorimetric ELISA.

[2] = biological target: T2, cynomolgus EpCAM protein (cynomolgus monkey); test: colorimetric ELISA
T2 construct: biotinylated in the Octet assays; also called cy EpCAM; cynomolgus monkey EpCAM
T2 sequence (Q1WER1 24-265): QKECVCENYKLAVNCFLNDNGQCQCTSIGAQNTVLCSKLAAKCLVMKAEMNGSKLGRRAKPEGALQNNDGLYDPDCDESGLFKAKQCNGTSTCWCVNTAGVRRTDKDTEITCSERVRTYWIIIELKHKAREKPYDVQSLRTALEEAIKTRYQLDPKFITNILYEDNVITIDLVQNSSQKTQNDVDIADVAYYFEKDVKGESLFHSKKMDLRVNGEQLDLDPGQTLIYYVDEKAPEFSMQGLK
Excerpt: as §1

ELISA absorbance [1] [absorbance]	Human EpCAM/Control [1] [ratio]	Cynomolgus EpCAM/Control [2] [ratio]	ELISA absorbance [2] [absorbance]	Binder
3.2	5	4	2.3	Llama anti-EpCAM single domain antibody EPL120 (VHH, E. coli periplasmic extract) VHH: QVQLQESGGGLVQAGGSLRLSCAASGFIFRAASISWYRQSPGNERELVATINSGGFTNYADSVLGRFTISRDNAKNTGYLQMNSLKPEDTAVYFCAATFLRSDGQPPIWGQGTQVTVSS
2.9	6	4	2.2	Llama anti-EpCAM single domain antibody EPL20 (VHH, E. coli periplasmic extract) VHH: QVQLQESGGGLVQAGGSLKLSCAASGNVFRAATMAWYRQAPEKQREMVATIASGGTTNYADFVKGRFTISRDNAKNTVYLQMNTLKPEDTAVYYCNAGYLTSLGPKNYWGQGTQVTVSS
3.5	8	8	3.5	Llama anti-EpCAM single domain antibody EPL125 (VHH, E. coli periplasmic extract) VHH: QVQLQESGGGLVQAGGSLRLSCAASGNVFRAATMAWYRQVPEKQREMVATIASGGTTNYADFVKGRFTISRDNAKNTVYLQMNTLKPEDTAVYYCNALYLTSLGPKSYWGQGTQVTVSS
0.7	8	35	3.2	Llama anti-EpCAM single domain antibody EPL15 (VHH, E. coli periplasmic extract) VHH: QVQLQESGGGSVLAGGSLRLSCAASGFTFSSYYMSWVRQAPGKGLEWVSGIHYTGDWTNYADSVKGRFTISRDNAKNELYLEMNNLKPEDTAVYYCARGSDKGQGTQVTVSS
0.9	10	36	3.1	Llama anti-EpCAM single domain antibody EPL34 (VHH, E. coli periplasmic extract) VHH: QVQLQESGGGSVQAGGSLRLSCAASGFTFSSYYMSWVRQAPGKGLEWVSGIHYTGDWTNYADSVKGRFTISRDNAKNELYLEMNNLKPEDTAVYYCARGSDKGQGTQVTVSS
0.6	7	6	0.5	Llama anti-EpCAM single domain antibody EPL31 (VHH, E. coli periplasmic extract) VHH: QVQLQESGGGLVHTGGSLRLSCAASGDTFLRYAMGWFRQAPGKEREFVAAITWNGGNTDYAGSLKGRFTISRDNTKNTVYLQMNSLKPEDTAVYYCAADLTFGLASSHYQYDYWGQGTQVTVSS
1.7	14	27	3.4	Llama anti-EpCAM single domain antibody EPL57 (VHH, E. coli periplasmic extract) VHH: QVQLQESGGGLVHTGGSLRLSCAFSGDTFLRYAMGWFRQAPGKEREFVAAITWNGGNTDYADSLKGRFTISRDNTKNTVYLQMNSLRPEDTAVYYCAADLTFGLASSHYQYDYWGQGTQVTVSS
0.4	5	7	0.6	Llama anti-EpCAM single domain antibody EPL55 (VHH, E. coli periplasmic extract) VHH: QVQLQESGGGLVQAGGSLRLSCAASGDTFLRYAMGWFRQAPGKEREFVAAITWNGGNTDYAGSLKGRFTISRDNTKNTVYLQMNSLKPEDTAVYYCAADLTFGLASSHYQYDYWGQGTQVTVSS
0.9	9	13	1.3	Llama anti-EpCAM single domain antibody EPL136 (VHH, E. coli periplasmic extract) VHH: QVQLQESGGGLVQPGGSLRLSCAASGDTFLRYAMGWFRQAPGKEREFVAAITWNGGNTDYAGSLKGRFTISRDNTKNTVYLQMNSLKPEDTAVYYCAADLTFGLASSHYQYDYWGQGTQVTVSS
2.9	17	23	4	Llama anti-EpCAM single domain antibody EPL13 (VHH, E. coli periplasmic extract) VHH: QVQLQESGGGLVQPGGSLRLSCAASGFAFGNHWMYWYRQAPGRGRELVASISSGGSTNYVDSVKGRFTISRDNARNTVYLQMYSLKPEDTAVYYCGTSDNWGQGTQVTVSS
2	20	29	3.1	Llama anti-EpCAM single domain antibody EPL129 (VHH, E. coli periplasmic extract) VHH: QVQLQESGGGLVQAGGSLRLSCAASGFAFGNHWMYWYRQAPGRGRELVASISSGGSTNYVDSVKGRFTISRDNARNTVYLQMYSLRPEDTAVYYCGTSDNWGQGTQVTVSS
0.8	8	31	3	Llama anti-EpCAM single domain antibody EPL86 (VHH, E. coli periplasmic extract) VHH: QVQLQESGGGLVQPGGSLRLSCAASGFTFSDWAMSWVRQAPGKGLEWVSGIHYGDHTTHYADFVKGRFTISRDDAKNTLYLQMNSLKPEDTAVYYCARGSTKGQGTQVTVSS
3.1	31	21	2.2	Llama anti-EpCAM single domain antibody EPL153 (VHH, E. coli periplasmic extract) VHH: QVQLQESGGGLVQPGGSLRLSCAASGFTFSDWAMSWVRQAPGKGLEWVSSIHYGDHTTHYADFVKGRFTISRDDAKNTLYLQMNSLKPEDTAVYYCEKGTTRGQGTQVTVSS
